According to patent publication US20210230273A1 (Alexion, published 2021):
Numbering of substitutions follows the chain as printed. Values belong to the binder of their own block, whether it stands above or below them.

Legend:
[1] = target: recombinant human CD200 Fc Chimera (human) (UniProt P41217); assay: SPR (Biacore 3000), CD200-Fc captured by anti-human Fc on CM5, Fab injected, 1:1 Langmuir
[2] = target: recombinant human CD200 Fc Chimera (human) (UniProt P41217); assay: SPR (Biacore), CD200 captured by anti-Fc (human) on CM5, Fab injected
[3] = target: T1, cell surface CD200 (human, UniProt P41217 31-278); assay: flow cytometry, inhibition of labelled CD200R-Fc binding to CD200+ Raji cells; mean ± SD
T1 construct: whole, on cells; also called CD200 on CD200 expressing Raji cells; CD200+ Raji cells
T1 sequence (looked up): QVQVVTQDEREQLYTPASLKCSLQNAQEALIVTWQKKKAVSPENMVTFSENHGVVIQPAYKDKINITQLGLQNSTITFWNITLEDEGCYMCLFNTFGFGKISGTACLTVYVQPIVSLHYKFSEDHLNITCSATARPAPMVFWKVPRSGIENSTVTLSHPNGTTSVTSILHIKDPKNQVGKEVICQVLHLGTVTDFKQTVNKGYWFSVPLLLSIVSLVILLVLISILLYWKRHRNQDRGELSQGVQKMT
Description: (§1) Next, the abilities of the newly-engineered anti-CD200 antibodies to antagonize CD200R were compared with that of samalizumab using CD200+ Raji cells. […] Binding of labeled CD200R-Fc was detected by flow cytometry.

[4] = target: T1, cell surface CD200; assay: whole-blood CD200 receptor occupancy by flow cytometry, T cells (CD3+); unlabelled antibody incubated overnight, free CD200 against total CD200 (1B2-AF647)
Experimental: (§2) Whole blood (including sodium heparin as anticoagulant) was added at 250 μL/FACs tube and sealed. Tubes were incubated at 25° C. in a temperature-controlled cabinet overnight to allow therapeutic antibody binding.
(§3) FACS Antibody Staining: Cells were blocked with Fc blocking reagent for 30 min. Red blood cells were lysed with hemolytic buffer; remaining cells were spun 800×g for 5 minutes, and the resulting cell pellet was washed twice with PBS. After final wash, cell pellets were resuspended into 200 μL PBS. Cells were stained with a fixable Live/Dead dye for 20 minutes protected from light, and then neutralized and washed with FACS buffer. After the final wash the cells were resuspended in 100 μL wash with FcR block. Labeled antibody cocktail mixes were prepared CD3-PE/CD19-FITC/Alexa-647 or CD3-PE/CD19-FITC/1B2-647 in blocking buffer as well as appropriate controls (single color and FMO). The appropriate amount of antibody was added and incubated with cells protected from light for 30 minutes at room temperature. […]
(§4) FACS Analysis: Data was acquired on an automated cell analyzer (BD Fortessa) by gating on lymphocytes, and single live cells followed by B cell (CD19+-FITC) and T cells (CD3-PE) populations. […] Percent receptor occupancy was calculated from the MFI (median fluorescence intensity) according to the following formula: […]

[5] = target: T1, cell surface CD200; assay: whole-blood CD200 receptor occupancy by flow cytometry, B cells (CD19+); unlabelled antibody incubated overnight, free CD200 against total CD200 (1B2-AF647)
Experimental: as §2, §3, §4

[6] = target: T1, cell surface CD200; assay: flow cytometry, inhibition of labelled CD200R-Fc binding to CD200+ Raji cells; n = 1
Description: as §1

B1: TPP-101 (Fab, V domains shown)
VH: QVQLQQSGSELKKPGASVKISCKASGYSFTDYIILWVRQNPGKGLEWIGHIDPYYGSSNYNLKFKGRVTITADQSTTTAYMELSSLRSEDTAVYYCGRSKRDYFDYWGQGTTLTVSS
VL: DIQMTQSPSSLSASIGDRVTITCKASQDINSYLSWFQQKPGKAPKLLIYRANRLVDGVPSRFSGSGSGTDYTLTISSLQPEDFAVYYCLQYDEFPYTFGGGTKLEIK
Kd [1]: 5.53 nM
koff [1]: 0.0148 s⁻¹
kon [1]: 2.67e+06 M⁻¹ s⁻¹
Kd [2]: 6.01 nM
koff [2]: 0.0175 s⁻¹
kon [2]: 2.91e+06 M⁻¹ s⁻¹

B2: TPP-111 (Fab, V domains shown)
VH: QVQLVQSGAEVKKPGASVKVSCKASGYSFTDYIILWVRQAPGQGLEWMGHIDPYYGSSNYNLKFKGRVTMTTDTSTSTAYMELRSLRSDDTAVYYCARSKRDYFDYWGQGTLVTVSS
VL: B1 VL with I15V, L46S, Y71F, V85T, G100Q
Kd [1]: 5.08 nM
koff [1]: 0.00625 s⁻¹
kon [1]: 1.23e+06 M⁻¹ s⁻¹

B4: TPP-123 (Fab, V domains shown)
VH: B2 VH with P41T, T72R, D73N, T76I, R84S, D89E
VL: B1 VL with I15V, L46S, Y71F, V85T, G100Q
Kd [1]: 4.36 nM
koff [1]: 0.00487 s⁻¹
kon [1]: 1.12e+06 M⁻¹ s⁻¹

B7: TPP-131 (Fab, V domains shown)
VH: QMQLVQSGAEVKKTGSSVKVSCKASGYSFTDYIILWVRQAPGQALEWMGHIDPYYGSSNYNLKFKGRVTITRDRSMSTAYMELSSLRSEDTAMYYCARSKRDYFDYWGQGTLVTVSS
VL: B1 VL with I15V, L46S, Y71F, V85T, G100Q
Kd [1]: 0.887 nM
koff [1]: 0.00235 s⁻¹
kon [1]: 2.65e+06 M⁻¹ s⁻¹

B8: TPP-103 (Fab, V domains shown)
VH: B2 VH with T72R, A79V, R84S, D89E
VL: B1 VL with I15V, L46S, Y71F, V85T, G100Q
Kd [1]: 10.1 nM
koff [1]: 0.00704 s⁻¹
kon [1]: 694000 M⁻¹ s⁻¹

B9: TPP-135 (Fab, V domains shown)
VH: B7 VH with A9P, T14P, S16T, P41R, A44R, M48I, R74M, M76T, M93V, R98A
VL: B1 VL with I15V, L46S, Y71F, V85T, G100Q
Kd [1]: 15.7 nM
koff [1]: 0.0146 s⁻¹
kon [1]: 930000 M⁻¹ s⁻¹

B10: TPP-107 (Fab, V domains shown)
VH: B2 VH with A16S, M70I, T72A, T74E, R84S, D89E
VL: B1 VL with I15V, L46S, Y71F, V85T, G100Q
Kd [1]: 4.64 nM
koff [1]: 0.0041 s⁻¹
kon [1]: 885000 M⁻¹ s⁻¹

B11: TPP-139 (Fab, V domains shown)
VH: QVQLVQSGSELKKPGASVKVSCKASGYSFTDYIILWVRQAPGQGLEWMGHIDPYYGSSNYNLKFKGRFVFSLDTSVSTAYLQISSLKAEDTAVYYCARSKRDYFDYWGQGTLVTVSS
VL: B1 VL with I15V, L46S, Y71F, V85T, G100Q
Kd [1]: 3.71 nM
koff [1]: 0.00368 s⁻¹
kon [1]: 993000 M⁻¹ s⁻¹

B13: TPP-115 (Fab, V domains shown)
VH: B2 VH with T72R, T76I, R84S, S85R
VL: B1 VL with I15V, L46S, Y71F, V85T, G100Q
Kd [1]: 4.04 nM
koff [1]: 0.0053 s⁻¹
kon [1]: 1.31e+06 M⁻¹ s⁻¹

B15: TPP-100 (Fab, V domains shown)
VH: EVQLQQSGPELVKPGASLKMSCKASGYSFTDYIILWVKQNHGKSLEWIGHIDPYYGSSNYNLKFKGKATLTVDKSSSTAYMQLNSLTSEDSAVYYCGRSKRDYFDYWGQGTTLTVSS
VL: DIQMTQSPSSMYASLGERVTITCKASQDINSYLSWFQQKPGKSPKTLIYRANRLVDGVPSRFSGSGSGQDYSLTISSLEYEDMGIYYCLQYDEFPYTFGGGTKLEIK
Kd [1]: 0.488 nM
koff [1]: 0.000739 s⁻¹
kon [1]: 1.51e+06 M⁻¹ s⁻¹
Kd [2]: 0.442 nM
koff [2]: 0.000747 s⁻¹
kon [2]: 1.69e+06 M⁻¹ s⁻¹

The remaining lines, values ahead:

Kd [2]: 0.407 nM
koff [2]: 0.000707 s⁻¹
kon [2]: 1.74e+06 M⁻¹ s⁻¹
B3: TPP-741 (Fab, V domains shown)
VH: B2 VH with G44R, M48I, M70I, T72R, T76A, R84S, D89E
VL: B1 VL with I15V, L46S, Y71F, V85T, G100Q

EC50 [3]: 0.46 nM
B5: samalizumab (antibody, human IgG2, kappa, V domains shown)
VH: B1 VH
VL: DIQMTQSPSSLSASIGDRVTITCKASQDINSYLSWFQQKPGKAPKLLIYRANRLVDGVPSRFSGSGSGTDYTLTISSLQPEDFAVYYCLQYDEFPYTFGGGTKLEIKR
notes: Humanized anti-human CD200 mAb with G2/G4 constant region; also called ALXN6000; TPP-309

Kd [2]: 0.104 nM
fold better affinity than mouse parental c2aB7 (TPP-100 Fab) [2]: 3 fold
fold better affinity than samalizumab (TPP-101 Fab) [2]: 45 fold
koff [2]: 0.00022 s⁻¹
kon [2]: 2.11e+06 M⁻¹ s⁻¹
B6: TPP-751 (Fab, V domains shown)
VH: B2 VH with G44R, M70I, T72R, T76A, R84S, D89E, A97G
VL: B1 VL with I15V, L46S, Y71F, V85T, G100Q

Kd [2]: 0.132 nM
fold better affinity than mouse parental c2aB7 (TPP-100 Fab) [2]: 3 fold
fold better affinity than samalizumab (TPP-101 Fab) [2]: 45 fold
koff [2]: 0.00024 s⁻¹
kon [2]: 1.82e+06 M⁻¹ s⁻¹
B12: TPP-709 (Fab, V domains shown)
VH: B2 VH with G44R, M70I, T72R, T76A, R84S, D89E, A97G
VL: B1 VL with I15V, L46S, Y71F, A84G, V85T, G100Q

EC50 (read off the curve) [4]: ~4 ng/mL
EC50 (read off the curve) [5]: ~4 ng/mL
EC50 [6]: 0.186 nM
B14: TPP-1143 (antibody, human IgG2, kappa, V domains shown)
VH: B2 VH with G44R, M70I, T72R, T76A, R84S, D89E, A97G
VL: B5 VL with I15V, L46S, Y71F, A84G, V85T, G100Q
notes: mAb with human G2G4 Fc (effectorless); also called TPP-11143 (as printed once)
